According to the Human Domainome abundance scans (Beltran et al. 2025):
± gives the uncertainty stated by the source.

B1: Retinoic acid receptor RXR-alpha, residues 132 to 208; numbered along this chain, P19793 (parent)
chain: KHICAICGDRSSGKHYGVYSCEGCKGFFKRTVRKDLTYTCRDNKDCLIDKRQRNRCQYCRYQKCLAMGMKREAVQEE

Variants of: B1
Test: abundance fitness (aPCA) (normalised: wild type 0, dead -1); higher = more abundant; growth selection in yeast, the domain comes from the species named
Conditions: Homo sapiens

For KHICAICGDRMSGKHYGVYSCEGCKGFFKRTVRKDLTYTCRDNKDCLIDKRQRNRCQYCRYQKCLAMGMKREAVQEE [S11M], which abundance fitness is on record?
The abundance fitness was -0.111 ± 0.032.

Which abundance fitness does the source give for KHICAICGDRCSGKHYGVYSCEGCKGFFKRTVRKDLTYTCRDNKDCLIDKRQRNRCQYCRYQKCLAMGMKREAVQEE [S11C] here?
Its abundance fitness is -0.015 ± 0.032.

For KHICAICGDRASGKHYGVYSCEGCKGFFKRTVRKDLTYTCRDNKDCLIDKRQRNRCQYCRYQKCLAMGMKREAVQEE [S11A], which abundance fitness is on record?
The abundance fitness was -0.054 ± 0.029.

For KHICAICGDRYSGKHYGVYSCEGCKGFFKRTVRKDLTYTCRDNKDCLIDKRQRNRCQYCRYQKCLAMGMKREAVQEE [S11Y], which abundance fitness is on record?
The abundance fitness was -0.096 ± 0.027.

Which abundance fitness does the source give for KHICAICGDRESGKHYGVYSCEGCKGFFKRTVRKDLTYTCRDNKDCLIDKRQRNRCQYCRYQKCLAMGMKREAVQEE [S11E] here?
Its abundance fitness is -0.072 ± 0.035.

For KHICAICGDRFSGKHYGVYSCEGCKGFFKRTVRKDLTYTCRDNKDCLIDKRQRNRCQYCRYQKCLAMGMKREAVQEE [S11F], which abundance fitness is on record?
Its abundance fitness is -0.087 ± 0.031.

Which abundance fitness does the source give for KHICAICGDRRSGKHYGVYSCEGCKGFFKRTVRKDLTYTCRDNKDCLIDKRQRNRCQYCRYQKCLAMGMKREAVQEE [S11R] here?
The abundance fitness was -0.162 ± 0.025.

Which abundance fitness does the source give for KHICAICGDRWSGKHYGVYSCEGCKGFFKRTVRKDLTYTCRDNKDCLIDKRQRNRCQYCRYQKCLAMGMKREAVQEE [S11W] here?
Its abundance fitness is -0.066 ± 0.031.

For KHICAICGDRLSGKHYGVYSCEGCKGFFKRTVRKDLTYTCRDNKDCLIDKRQRNRCQYCRYQKCLAMGMKREAVQEE [S11L], which abundance fitness is on record?
Its abundance fitness is -0.142 ± 0.024.

Which abundance fitness does the source give for KHICAICGDRVSGKHYGVYSCEGCKGFFKRTVRKDLTYTCRDNKDCLIDKRQRNRCQYCRYQKCLAMGMKREAVQEE [S11V] here?
Its abundance fitness is -0.179 ± 0.027.

For KHICAICGDRDSGKHYGVYSCEGCKGFFKRTVRKDLTYTCRDNKDCLIDKRQRNRCQYCRYQKCLAMGMKREAVQEE [S11D], which abundance fitness is on record?
The abundance fitness was -0.014 ± 0.036.

With KHICAICGDRNSGKHYGVYSCEGCKGFFKRTVRKDLTYTCRDNKDCLIDKRQRNRCQYCRYQKCLAMGMKREAVQEE [S11N] as the variant, how does the abundance fitness read?
Its abundance fitness is -0.084 ± 0.029.

Which abundance fitness does the source give for KHICAICGDRTSGKHYGVYSCEGCKGFFKRTVRKDLTYTCRDNKDCLIDKRQRNRCQYCRYQKCLAMGMKREAVQEE [S11T] here?
Its abundance fitness is -0.089 ± 0.028.

Which abundance fitness does the source give for KHICAICGDRPSGKHYGVYSCEGCKGFFKRTVRKDLTYTCRDNKDCLIDKRQRNRCQYCRYQKCLAMGMKREAVQEE [S11P] here?
Its abundance fitness is 0.072 ± 0.03.

Which abundance fitness does the source give for KHICAICGDRISGKHYGVYSCEGCKGFFKRTVRKDLTYTCRDNKDCLIDKRQRNRCQYCRYQKCLAMGMKREAVQEE [S11I] here?
The abundance fitness was -0.113 ± 0.031.

For KHICAICGDRGSGKHYGVYSCEGCKGFFKRTVRKDLTYTCRDNKDCLIDKRQRNRCQYCRYQKCLAMGMKREAVQEE [S11G], which abundance fitness is on record?
Its abundance fitness is -0.116 ± 0.026.

For KHICAICGDRQSGKHYGVYSCEGCKGFFKRTVRKDLTYTCRDNKDCLIDKRQRNRCQYCRYQKCLAMGMKREAVQEE [S11Q], which abundance fitness is on record?
Its abundance fitness is -0.101 ± 0.032.

Which abundance fitness does the source give for KHICAICGDRHSGKHYGVYSCEGCKGFFKRTVRKDLTYTCRDNKDCLIDKRQRNRCQYCRYQKCLAMGMKREAVQEE [S11H] here?
Its abundance fitness is -0.019 ± 0.035.

For KHICAICGWRSSGKHYGVYSCEGCKGFFKRTVRKDLTYTCRDNKDCLIDKRQRNRCQYCRYQKCLAMGMKREAVQEE [D9W], which abundance fitness is on record?
The abundance fitness was -0.141 ± 0.054.

Which abundance fitness does the source give for KHICAICGRRSSGKHYGVYSCEGCKGFFKRTVRKDLTYTCRDNKDCLIDKRQRNRCQYCRYQKCLAMGMKREAVQEE [D9R] here?
The abundance fitness was -0.243 ± 0.032.

With KHICAICGTRSSGKHYGVYSCEGCKGFFKRTVRKDLTYTCRDNKDCLIDKRQRNRCQYCRYQKCLAMGMKREAVQEE [D9T] as the variant, how does the abundance fitness read?
The abundance fitness was -0.089 ± 0.031.

With KHICAICGHRSSGKHYGVYSCEGCKGFFKRTVRKDLTYTCRDNKDCLIDKRQRNRCQYCRYQKCLAMGMKREAVQEE [D9H] as the variant, how does the abundance fitness read?
Its abundance fitness is -0.214 ± 0.034.

For KHICAICGKRSSGKHYGVYSCEGCKGFFKRTVRKDLTYTCRDNKDCLIDKRQRNRCQYCRYQKCLAMGMKREAVQEE [D9K], which abundance fitness is on record?
The abundance fitness was 0.03 ± 0.044.

With KHICAICGLRSSGKHYGVYSCEGCKGFFKRTVRKDLTYTCRDNKDCLIDKRQRNRCQYCRYQKCLAMGMKREAVQEE [D9L] as the variant, how does the abundance fitness read?
Its abundance fitness is -0.708 ± 0.045.

Which abundance fitness does the source give for KHICAICGIRSSGKHYGVYSCEGCKGFFKRTVRKDLTYTCRDNKDCLIDKRQRNRCQYCRYQKCLAMGMKREAVQEE [D9I] here?
Its abundance fitness is -0.455 ± 0.04.

Which abundance fitness does the source give for KHICAICGMRSSGKHYGVYSCEGCKGFFKRTVRKDLTYTCRDNKDCLIDKRQRNRCQYCRYQKCLAMGMKREAVQEE [D9M] here?
The abundance fitness was -0.354 ± 0.051.

Which abundance fitness does the source give for KHICAICGSRSSGKHYGVYSCEGCKGFFKRTVRKDLTYTCRDNKDCLIDKRQRNRCQYCRYQKCLAMGMKREAVQEE [D9S] here?
The abundance fitness was -0.137 ± 0.028.

With KHICAICGPRSSGKHYGVYSCEGCKGFFKRTVRKDLTYTCRDNKDCLIDKRQRNRCQYCRYQKCLAMGMKREAVQEE [D9P] as the variant, how does the abundance fitness read?
The abundance fitness was -0.662 ± 0.054.

Which abundance fitness does the source give for KHICAICGQRSSGKHYGVYSCEGCKGFFKRTVRKDLTYTCRDNKDCLIDKRQRNRCQYCRYQKCLAMGMKREAVQEE [D9Q] here?
Its abundance fitness is 0.033 ± 0.045.

Which abundance fitness does the source give for KHICAICGVRSSGKHYGVYSCEGCKGFFKRTVRKDLTYTCRDNKDCLIDKRQRNRCQYCRYQKCLAMGMKREAVQEE [D9V] here?
Its abundance fitness is -0.424 ± 0.044.

For KHICAICGNRSSGKHYGVYSCEGCKGFFKRTVRKDLTYTCRDNKDCLIDKRQRNRCQYCRYQKCLAMGMKREAVQEE [D9N], which abundance fitness is on record?
The abundance fitness was -0.05 ± 0.033.

Which abundance fitness does the source give for KHICAICGDHSSGKHYGVYSCEGCKGFFKRTVRKDLTYTCRDNKDCLIDKRQRNRCQYCRYQKCLAMGMKREAVQEE [R10H] here?
Its abundance fitness is -0.051 ± 0.03.

With KHICAICGDMSSGKHYGVYSCEGCKGFFKRTVRKDLTYTCRDNKDCLIDKRQRNRCQYCRYQKCLAMGMKREAVQEE [R10M] as the variant, how does the abundance fitness read?
Its abundance fitness is -0.099 ± 0.034.

With KHICAICGDESSGKHYGVYSCEGCKGFFKRTVRKDLTYTCRDNKDCLIDKRQRNRCQYCRYQKCLAMGMKREAVQEE [R10E] as the variant, how does the abundance fitness read?
Its abundance fitness is -0.059 ± 0.034.

With KHICAICGDCSSGKHYGVYSCEGCKGFFKRTVRKDLTYTCRDNKDCLIDKRQRNRCQYCRYQKCLAMGMKREAVQEE [R10C] as the variant, how does the abundance fitness read?
Its abundance fitness is -0.053 ± 0.035.
